# According to patent publication US20240218066A1, “USE OF ANTI-PD-1 ANTIBODY IN COMBINATION WITH FIRST-LINE CHEMOTHERAPY IN TREATMENT OF ADVANCED NON-SMALL CELL LUNG CANCER” (SHANGHAI JUNSHI BIOSCIENCES CO., LTD., priority 2021, published 2024):
# What was measured:
# [1] = test system: patients with untreated advanced NSCLC
# Experimental: (§1) This is a randomized, double-blind, placebo-controlled, multicenter, phase III clinical study for assessing the efficacy and safety of toripalimab (JS001) or placebo in combination with first-line chemotherapy in patients with untreated advanced NSCLC and exploring the population with optimal biomarker prediction.
# (§2) Toripalimab 240 mg/placebo was administered by intravenous infusion once every three weeks (Q3W) in cycles of 21 days, with treatment continued until the patients met the discontinuation criteria, i.e., recorded progressive disease, unacceptable AEs, investigator-assessed unsuitability for continued treatment, withdrawal of informed consent, 2 years of JS001 treatment, or other reasons as specified in the protocol.
# (§3) The selection of cisplatin or carboplatin was at the discretion of the investigator.
# (§4) Safety analysis set (SS): including all patients who received at least one dose of the study drug (JS001/placebo/chemotherapeutic agent).
# (§5) Safety analysis was performed in SS and crossover treatment analysis sets, where safety data from the double-blind stage of the primary study and the crossover treatment stage were analyzed separately. Safety analyses include drug exposure, compliance, adverse events, laboratory examinations, vital signs, physical examinations, electrocardiogramaminations, ECOG scores, etc.
# (§6) All safety analyses were based on the SS population (464 patients), including 308 patients in the test group and 156 patients in the control group. […] The primary safety analysis results based on the SS population in the double-blind stage of the primary study are as follows:
# [2] = test system: patients with untreated advanced NSCLC; assay: Phase III clinical study, safety analysis (SS population); details: SS population, test group
# Experimental: as §1, §2, §3, §4, §5, §6
substance,measurement,setting,value
JS001: humanized IgG4 anti-PD-1 mAb with light and heavy chain amino acid sequences SEQ ID NOs: 9 and 10,SAE judged by the investigator to be related to JS001: infectious pneumonia,[1],1.6%
same,SAE judged by the investigator to be related to JS001: anemia,[2],2.6%
same,SAE judged by the investigator to be related to JS001: immune-mediated hepatitis,[2],1.0%
same,SAE judged by the investigator to be related to JS001: immune-mediated pneumonia,[2],2.6%
same,SAE judged by the investigator to be related to JS001: interstitial lung disease,[2],1.3%
same,SAE judged by the investigator to be related to JS001: leukopenia,[2],1.0%
same,SAE judged by the investigator to be related to JS001: liver function abnormality,[2],1.3%
same,SAE judged by the investigator to be related to JS001: neutropenia,[2],1.9%
same,SAE judged by the investigator to be related to JS001: pulmonary inflammation,[2],1.0%
same,SAE judged by the investigator to be related to JS001: thrombocytopenia,[2],2.3%
